The values below are quoted from earlier work in paper PMC3386632.

The series addresses integrin αIIbβ3 (Homo sapiens) (UniProt P08514).

pKd: −log10 of the molar value.

For disagregin (from UniProt P36235), the pKd was 7.40.

One may read the pKd as −log10 of the Kd, conventionally taken in molar units.
